The record followed here is doi:10.1101/2025.11.17.688653.

The assay concerns the target mouse PIEZO1-R2482H (mouse) (UniProt E2JF22). The experiment in a line: cryo-EM structure.

For the substance mouse PIEZO1-R2482H, E2JF22 1-2547, the stoichiometry N is 3.
